{
  "source": "the nanobody polyreactivity screen of Harvey et al. (2022)",
  "data": [
    {"assay": "yeast display, Sf9 membrane polyspecificity reagent, FACS + sequencing; frameworks hold sequencing errors", "how_it_was_run": "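Galactose induction of a Saccharomyces cerevisiae BJ5465 synthetic nanobody display library ran 36–48 hours. The cells were then stained for 1 hour at 4 °C with 10% biotinylated, detergent-solubilized Sf9 membrane reagent, pulled down on streptavidin microbeads and FACS-sorted into low and high (top ~1%) gates on expression and reagent-binding fluorescence. Labels for polyreactivity follow the gate of origin.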", "values": [
      {"sequence": "QVQLVESGGGLVQAGGSLRLSCAASGLIFRYYAMGWYRQAPGKERELVAAISYSGGRTYYADSVKGRFTISRDNAKNTVYLQMNSLKPEDTAVYYCAAVDRRGYRYALDYWGQGTQVTVSS", "polyreactivity (PSR sort gate)": "high polyreactivity"},
      {"sequence": "QVQLVESGGGLDQAGGSLRLSCAASGRTFKYYAMGWYRQAPGKERELVAAITRSGSTYYADSVKGRFTISRDNAKNTVYLQMNSLKPEDTAVYYGAADVTLYYRGRRYYYWGQGTQVTVSS", "polyreactivity (PSR sort gate)": "high polyreactivity"},
      {"sequence": "QVQLEESGGGLVQAGGSLRLSCAASGSTFNYYAMGWYRTATGKERELVAAITGSGTSTYYADSVKGRFTISRDNAKNTVYLQMNSLKPEDTAVYYCNARYRPRQRPEGGYWGQGTQVTVSS", "polyreactivity (PSR sort gate)": "high polyreactivity"},
      {"sequence": "QVHLVESGGGLVQAGGSLRLSCAATGRTFIIYTMAWYRQAPGKESEFVAAITRSGGGTYYADSVKGRFTISRDNAKNTVYLQMNSQKPEDTAVYYCAAVRFYDQAYDYWGQGTQVTVSS", "polyreactivity (PSR sort gate)": "low polyreactivity"},
      {"sequence": "QDQLVESGGGLVQAGGSLRLSCAASGNNYWTNAMGWYRQAPGKERELVAAISWSGDSTYYADSVKGRFTISRDNAKNTVYLQLNSLKPEDTAVYYCAVLDVYRYRMDYWGQGTQVTVSS", "polyreactivity (PSR sort gate)": "low polyreactivity"},
      {"sequence": "QVQLVESGGGLVQAGGSLRLSCAASGSTFKFNAMGWYRQAPGKEREFVAAITSSGDSTYYADSVKGRFTISRDNAKNTVYLQMNCLKPEDTAVYYCAAEFESSFALGFYYWGQGTEVTVSS", "polyreactivity (PSR sort gate)": "high polyreactivity"},
      {"sequence": "QVQLVESGGGLVQAGGSLRLSCAASGSIFSGYVMGWYRQAPGKERELVAAIDNSSGSTYYADSVKGRFTISRDNAKNTVYLQMNSLKPEDTAVYYCAADYYSKAYSEYDYWGQGTQVTVSS", "polyreactivity (PSR sort gate)": "low polyreactivity"},
      {"sequence": "QVQLEESGGGLVQAGGSLRLSCAASGRTFSYYSMGCYRKAPGKERELVAAITSGGRTYYADSVKGRFTISRDNAKNTVYLQINSLKPEDTAVYYCAARWYARSLTRFNYWGQGTQVTVSS", "polyreactivity (PSR sort gate)": "high polyreactivity"},
      {"sequence": "QVQHVESGGGLVQAGGSLRLSCAASGSIFYVYAMGWYRQAPGKERELVASINKSGGSTYYADSVKGRFTISRDNAKNTVYLQMNSLKPEDTAVYYCAARTGWPRVGFQYPAHVGFDYWGQGTQVTVSS", "polyreactivity (PSR sort gate)": "low polyreactivity"},
      {"sequence": "QVQLVESGGGLVQAGGSLRLSCAASGSTFSRYAMGWYRQAPGKERELVAAISYSGDSTYYADSVKGRFTISRDNAKNTVYLQMNSLKPEDTAVYYCNVYSHYRGYYWGQGTQVTVSS", "polyreactivity (PSR sort gate)": "high polyreactivity"},
      {"sequence": "QVQLVESGGGLVQAGGSLRLSCAASRRIFSFNAMGWYRQAPGKDRELVAGSTYGGNTYYADSVKGSFTISRDNAKNTVYLQMNSLKPEDTAVYYCAAVRGGRHDYWGQGTQVTVSS", "polyreactivity (PSR sort gate)": "low polyreactivity"},
      {"sequence": "QVQLVESGGGLVQAGGSLRLSCAASGSTFSYNAMGWYRRAPGKERELVAAISWNGDSTYADSVKGRFTISRDNAKNTVYLQMNSLKPEDTAVYYCAKETIITPGRRKSPRYLHGYWGQGTQVTVSS", "polyreactivity (PSR sort gate)": "low polyreactivity"},
      {"sequence": "QVQLLESGGGLVQAGGSLRLSCAASGRSYCNNVMGWYRQEPGKERELVAAITFSGTSTYYADSVKVRFTISRDNAKNTVYLQMNSLKPEDTAVYYCAKYRYADYYSPCYDYWGQGTQVTVSS", "polyreactivity (PSR sort gate)": "low polyreactivity"},
      {"sequence": "QVQLVESGGGLVQAGGSLRLSCAASGYTFNYYAMGWYRQAPGKERELVAAISASSDSTYYADSVKGRFTISRDNAKNTVYLQMNSLNPEDTAVYYCAAVSGRYRIYRYDYWGQGTQVTVSS", "polyreactivity (PSR sort gate)": "low polyreactivity"},
      {"sequence": "QVQLVESGGGLVQAGGSLRLSCAASGRTFNYYPMGWYRQAPGKERELVAAISRSGTPTYYADSVKGRFTISRDNAKNTVYLQMNSLKPEDTAVYYCAAYLVSYPRGNYIRYDYWGQGTQVTVSS", "polyreactivity (PSR sort gate)": "low polyreactivity"},
      {"sequence": "QVQLVESGGGLVQAGGSLRLICAASGITFYVYTMGWYRQAPGKERELVAAINGSGGSTNYADSVKGRFTISRDNAKNTVYLQMNSLKPEDTAVYYCAADWSLRLYDYWGQGTQVTVSS", "polyreactivity (PSR sort gate)": "low polyreactivity"},
      {"sequence": "QVQLVESGGGLVQAGGSLRLSCAASGSIFSRYTMGWYRQAPGKERELVARINSSGTSTYYADSVQGRFTIARDNAKNTVYLQMNSLKPEDTAVYYCAAQVDTQYWDFDYWGQGTQVTVSS", "polyreactivity (PSR sort gate)": "low polyreactivity"},
      {"sequence": "QVQLVESGGGLVQEGGSLSLSCAASGYIFYIYAMGWYRQAPGKERELVATISWSGGDTYYADSVKGRFTISRDNANNTVYLQMNSLNPEDTAVYYCATEVGQSWAGDGDYEYWGQGTQVTVSS", "polyreactivity (PSR sort gate)": "low polyreactivity"},
      {"sequence": "QVQLVESGGGLVQEGGSLRLSCAASGRIFENNAMGWYRQAPGKERELVAAITSGGSTYYADSVKGRFTISRDNAKNTVYLQMNSLKPEDTAVYYCNVTFRVDPWTRTGYDYWGQGTQVTVST", "polyreactivity (PSR sort gate)": "high polyreactivity"},
      {"sequence": "QVQLVESGGGLVQAGGSLRLSCAASGSIFFRYATMGWYRHAPGKESELVAAISRSGGSTYYADSVKGRFTISRDNGKNTVYLQMNSLKPEDTAVYYCAKVSPSLRASGYDYWGQGTQLTVSS", "polyreactivity (PSR sort gate)": "high polyreactivity"},
      {"sequence": "QVQLVESGGGLLQAGGSLRLSCAASGITLSYYVMGWYRQAPGKERELVAAINQSGSRTYYADSVKGRFTISRDNPKNSVYLQMNSLKPEDTAVYYCAGVFSYQPTSGYGYWGQGTQVTVSS", "polyreactivity (PSR sort gate)": "high polyreactivity"},
      {"sequence": "QVQLVESGGGLVQAGGSLRLSCAASGSTSSLYTMGWYKQAPGKERELVAAITVSGSRTYYADSVKGRFTISRDNAKNTVYLQMNSLKPEDTAVYYCNAYPYYLVRNMDSWGQGTQVTVSS", "polyreactivity (PSR sort gate)": "high polyreactivity"},
      {"sequence": "QVQLVESGGGLVQAGGSLRLSCAPSGYIFAPNAMGWYRQAPGKERELVAAITFSGGSTSYADSVKGRFTISRDNAKNTVYLQMNSLKPEDTAVYYCAAYWYSLYYLFPYDYWGQGTLVTVSS", "polyreactivity (PSR sort gate)": "low polyreactivity"},
      {"sequence": "QVQHVESGGGLVQAGGSLRLSCAASGRIYAMGWYRQAPGKERELVARITKSGTSTYYADSVKGRFTISRDNAKNTVYLQMNSLKPEDTAVYYCNARYWGYWGDHYDYWGQGTQLTVSS", "polyreactivity (PSR sort gate)": "high polyreactivity"},
      {"sequence": "QDQLVESGGGLVQAGGSLRLSCAAYGRTFVPYAMGWYRQAPGKEREFVAVITWGGGSTYYADSVKGRFTISRDNAKNTVYLQMNSLKPEDTAVYYCAARNRRATGLGSRYGYWGQGTQVTVSS", "polyreactivity (PSR sort gate)": "high polyreactivity"},
      {"sequence": "QVQLVESGGGLVQAGGSLRLSCAASGSILRQYAMGWYRQAPGKERELVATITGDGSTNYADSVKGRFTISRDNAKNTVYLQMNSLKPEDTAVYYCAADQTYTYEYWGQGTQVTVSS", "polyreactivity (PSR sort gate)": "low polyreactivity"},
      {"sequence": "QVQLVESGGGLVQAGGSLRLSCAASGRILRQYAMGWYRQEPGKERELVAAISRSGASTFYADSVKGRFTISRDNAKNTVYLPMNSLKPEYTAVYYCASKRYLKYGYWGQGTQVTVSS", "polyreactivity (PSR sort gate)": "high polyreactivity"},
      {"sequence": "QVQLVESGGGLVQAGGSLRLSCAASGRILNWNVMGWYRQAPGKERELVAGISSDGSTYADSVKGRFTISRDNAKNTVYFQMNSLKPEDTAVYYCAADRVGLSRGYDYWGQGTQVTVSS", "polyreactivity (PSR sort gate)": "low polyreactivity"},
      {"sequence": "QVQLVESGGGLVQAGGSLRLSCADSGFTFDYNAMGSYRQAPGKERELVAAISTGGSTKYADSVKGRFTISRDNAKNTVYLQMNSLKPEDTAVYYCNKQTTDRGFYDWKWSGFDYWGQGTQVTVSS", "polyreactivity (PSR sort gate)": "low polyreactivity"},
      {"sequence": "QVKLVDSGGGLVQAGGSLRLSCAASGSIFGAYAMGWYRQAHGKERELVAPITLRDGSTYYADSVKGRFTISRDNAKNTVYLQLNSLKPEDTAVYYCATYYSAINYGWSKTILYDYWGQGTQVTVSS", "polyreactivity (PSR sort gate)": "low polyreactivity"},
      {"sequence": "QVQLVESGGGLVQAGGSLRLSCAASGSTFEYYAMGWYRQAPGKERELVAAITTSGGITYYADSVKGRFTISRDNAKNTVYLQMNSLKPEDTAVYYCNADAVPLPTLVTYLYDYWGQGTQVTVSS", "polyreactivity (PSR sort gate)": "low polyreactivity"},
      {"sequence": "QVQLVESGGGLVQAGGSLRLSCAASGFIFSKYTMGWYRQAPGKETELVAAISSGGRTYYADSVKGRFTISRDNAKNTVYLQMNSLKPEDTAVYYCAVRGYIASQQAAGGGRNYYYWGQGTQVNVSS", "polyreactivity (PSR sort gate)": "high polyreactivity"},
      {"sequence": "QVQLVESGGGLVQAGGSLRLSCAASGTLRYYAMGWYRQAPGKERELVAAISKSGGRTYYADSVKGRFTISRDNAKNTVYLQMNSLKPEDTAVYYCAARGWTANYEMDHWGQGTQVTVSS", "polyreactivity (PSR sort gate)": "high polyreactivity"},
      {"sequence": "QVQLVESGGGLVQAGGSLRLSCAASGYILYGYAMGGYRQAPGKERELVAAISNDGSTYYADSVKGRFTISRDNAKNSVYLQMNSLKTEDTAVYYCNAREYGYFKYDYWGQGTQVTVSS", "polyreactivity (PSR sort gate)": "high polyreactivity"},
      {"sequence": "QVQLVESGGGLVQAGGSLRLSCAASGSIFTTYAMGWYRQAPGKERELVATITSSDSTNYADSVKGRFTISRDNAKNTVYLQMNSLKPEDTAVYYCNAGGDRTVSVAWYSADDYWGQGTQVTVSS", "polyreactivity (PSR sort gate)": "low polyreactivity"},
      {"sequence": "QVQLQESGGGLVQAGGTLRLSCAASGSFSADEDMGWYRQAQGKEREFVAGISVGGNTNYADSVKGRFTISRENAKNTVYLELNSLKPEDTAVYYCAVLQDVYDALDYWAQGTQVTVSS", "polyreactivity (PSR sort gate)": "high polyreactivity"},
      {"sequence": "QVQLVESGGGLVQAGGSLRLSCAASGSIFYLYAMGWYRPAPGKERELVAAISRSGASTYYADSVKGRFTISRDNAKNTVYLQMNSLKPEDTAVYYCAAYKIWGRVRYDYWGQGTQVTVSS", "polyreactivity (PSR sort gate)": "low polyreactivity"},
      {"sequence": "QVQLVESGGGLVQAGGSLRLTCAASGIYFTDYAMGWYRQAPGKERELVAAISGIGSTTYYADSVKGRFTISRDNAKNTVYLQMNSLKPEDTAVYYCNALLAYTYWYDYWGQGTQVSVSS", "polyreactivity (PSR sort gate)": "high polyreactivity"},
      {"sequence": "QVQLVESGGGLVQEGGSLRLSWAASGITFGGYAMGWYRQAPGKERELVAAISRGGGSTNYADSVKGRFTISLDNANNTVYLQMNSLKPEDTAVYYCNARRQNSRYDYWGQGTQVTVST", "polyreactivity (PSR sort gate)": "low polyreactivity"},
      {"sequence": "QVQLVESGGGLVHAGGSLSLSCAASGSTFKDYAMGWYRQAPGKERELVAAISKGATRTYYADSVKGRFTISRDNAKITVYLQINSLKPEDTAVYYCAADRLKFRGEYDYWGQGSQVTVSS", "polyreactivity (PSR sort gate)": "high polyreactivity"},
      {"sequence": "QVQLVESGGGLVQAGGSLRLSCAASGLTVLQNAMGWYRQAPGKEWELVAAINIGTNTYADSVKGRFTSARDNAKNTVYLQMNSLKPEDTAVYYCATVDTVLVRPVGYDYWGQGTQVTVSS", "polyreactivity (PSR sort gate)": "low polyreactivity"},
      {"sequence": "QVQLVESGVGLVQAVGSLRLSCAASGIIFPYYPMGWYRQAPGKERELVAAISTGGSTYYADSVKGRFTISRDNAKNTVYLQMNSLKPEDTAVYFCAARVARYRSTKRYDYWGQGTQVSVSS", "polyreactivity (PSR sort gate)": "high polyreactivity"},
      {"sequence": "QVQLVESGGGLVQAGGSLRLSCAASGGILHSYAMGWYRQAPGKERELVAAISGSGGSTYYADSVKGRFTISRDNAKNTVYLQMNSLKPEDTAVYYCNAVHHYPEHIGGGYWGQGTQVTVSS", "polyreactivity (PSR sort gate)": "low polyreactivity"}
    ]}
  ]
}
